Data on two molecules can be found in CN113388028A (SHENZHEN FUTIAN GEWU ZHIKANG PATHOGEN RES INSTITUTE; …, dated 2021).

Assay [1] concerns the target T1, SARS-S1 (SARS-CoV, UniProt P59594 14-667).
T1 construct: domain: S1
Kind of assay: ELISA.

The target of assay [2] is T2, MERS-S1 (MERS-CoV, UniProt K9N5Q8 18-725).
T2 construct: domain: S1
Kind of assay: ELISA. A general note: An ELISA detects its analyte on a solid surface through an enzyme-linked reagent.

Assay [3] addresses S1RBD-mFc (SARS-CoV-2 S1蛋白RBD与mFc的融合蛋白) (SARS-CoV-2).
Assay [4] deals with S1RBD-his (SARS-CoV-2 S1蛋白RBD与His的融合蛋白) (SARS-CoV-2). As to the kind of experiment: BLI (Octet QKe), antibody captured on AHC sensor, S1RBD-His in solution, 1:1 fit.

B1: 重组抗体8B4 (antibody, V domains shown)
VH: EVQLVQSGAEVKKPGSSVKVSCKASGGTFSSFSISWVRQAPGQGLEWMGRIIPVLGIANYAQEVQGRVTITADKSTSTAYMELSSLRSEDTAVYFCTTDRFVEPATGPFFDYWGQGTLVTVSS
VL: EIVMTQSPATLSVSPGERATLSCRASQSVSSNLAWYQQKPGQAPRLLIYGASTRATGIPARFSGSGSGTEFTLTISSLQSEDFAVYYCQQYSNWLTFGGGTKVEIK
notes: also called 8B4-Biotin
Usually IC50 stands for the concentration at which inhibition is half-maximal. The term Kd denotes the constant that tells how readily two partners part at equilibrium. One may read the koff as the rate constant with which the complex falls apart. A word on the kon: it is a measure of how fast the partners come together. Low readings indicate slow association, high ones fast association. As to B1, the binding result in assay [1] is “no binding”. Besides, the binding result in assay [2] was “no binding”. For the same molecule, inhibition in assay [3] was half-maximal at 23.1 nM (IC50). In assay [4], this molecule registered a Kd of 7.7 nM, a koff of 0.00157 s⁻¹ and a kon of 204000 M⁻¹ s⁻¹.

B2: 重组抗体24G8 (antibody, V domains shown)
VH: EVQLVESGGGLVKPGGSLRLSCAASGFTFSSYSMNWVRQAPGKGLEWVSSISSSSSFIYYADSVKGRFTISRDNAKNSLYLQMNSLRAEDTAVYYCAREVHVDTAMDAYFDYWGQGTLVTVSS
VL: DIQMTQSPSSLSASVGDRVTITCRASQTISSYLNWYQQKPGKAPKLLIFAASSLQSGVPSRFSGSGSGTDFTLTISSLQPEDFATYYCQQSYSNPPLTFGGGTKVEIE
notes: also called 24G8-Biotin
In assay [3], B2 gave an IC50 of 11.4 nM. For the same molecule, in assay [4], binding was characterised by a dissociation constant (Kd) of 1.08 nM, the koff was 0.000264 s⁻¹ and the kon amounted to 244000 M⁻¹ s⁻¹.
